Assay [1] addresses constitutively active Flag-Rab4 variant (Drosophila). The assay is described as follows: co-IP.
The target of assay [2] is dominant negative Flag-Rab4 variant (Drosophila). The assay is described as follows: co-IP.

This note sets out measurements from PMC4352398.

B1: Myc-RhoGAP68F (natural protein)
chain: MDAHSRFAPRLPGPAINPIVDNSDEPQPSLSDLHDFEPKLEFDDTELLAPSPLEKDVMVGDFVLAEDPELEPEEDVNPLEDDFEDQLREQSENFQTPRNKCDFLGTDKQGRHIFGIYASRFPEKSQLEGFVREIIKEIEPFVENDYILVYFHQGLKEDNKPSAQFLWNSYKELDRNFRKNLKTLYVVHPTWFIRVIWNFFSPFISDKFRKKLVYISSLDELRQALGLNKLKLPDNICDLDDKLNPSRKPSTPPPSSNINASRQQQHKMATTHQFGVPLKFIVMNSPCLNSIPPIVRKCVDSLSITGVIDTEGIFRRSGNHSEIMALKERVNRGEDVDLKSVNVHVIAGLLKSFLRDLAEPLLTFELYEDVTGFLDWPKEERSRNVTQLIREKLPEENYELFKYIVEFLVRVMDCEDLNKMTSSNLAIVFGPNFLWSRSTSTSLEEIAPINAFVDFVLQNHKDIYLIDVNQRTVSVD
Molecule B1 had a fold stronger association than with wild type Flag-Rab4 in assay [1] of 3.26 fold. The molecule also returned a fold weaker association than with wild type Flag-Rab4 in assay [2] of 2.88 fold.
